# Earlier results as cited in US20030175848A1, “Substituted dithiobisnitrobenzenes and their applications” (Institut Pasteur De Lille, priority 1998, published 2003).
# B1: HTrx: human thioredoxin, physiological substrate of hTrxR (protein, UniProt P10599 2-105, looked up)
# Thioredoxin: VKQIESKTAFQEALDAAGDKLVVVDFSATWCGPCKMIKPFFHSLSEKYSNVIFLEVDVDDCQDVASECEVKCMPTFQFFKKGQKVGEFSGANKEKLEATINELV
# Molecular target: T1, human thioredoxin reductase (hTrxR) (Homo sapiens, UniProt Q16881)
# T1 construct: U of native hTrxR; from tissue; host or cells: human placenta
# T1 sequence (Q16881 151-649 limits assumed): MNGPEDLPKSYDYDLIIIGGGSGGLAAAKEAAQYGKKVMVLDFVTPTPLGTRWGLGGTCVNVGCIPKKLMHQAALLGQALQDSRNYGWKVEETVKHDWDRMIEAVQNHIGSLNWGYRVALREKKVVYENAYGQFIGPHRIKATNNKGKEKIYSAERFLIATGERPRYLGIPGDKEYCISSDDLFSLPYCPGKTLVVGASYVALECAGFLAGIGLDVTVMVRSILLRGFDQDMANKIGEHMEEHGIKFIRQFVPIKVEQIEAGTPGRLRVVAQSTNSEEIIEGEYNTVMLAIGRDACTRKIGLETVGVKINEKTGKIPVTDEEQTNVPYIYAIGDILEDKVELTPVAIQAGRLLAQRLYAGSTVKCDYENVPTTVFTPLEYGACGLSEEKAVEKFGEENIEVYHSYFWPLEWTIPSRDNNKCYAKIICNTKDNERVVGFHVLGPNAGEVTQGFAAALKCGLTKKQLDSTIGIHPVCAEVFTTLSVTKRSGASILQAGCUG
# Details: substrate of native hTrxR (placenta); references [29], [38]
molecule,measurement,value
B1,Km,4.3 µM
